Experimental findings from US20260250320A1, “LIPIDATED PEPTIDE INHIBITORS OF INTERLEUKIN-23 RECEPTOR” (Janssen Pharmaceutica NV, priority 2023, published 2026) are described below.

The target in assay [1] is T1, interleukin-23 receptor (IL-23R) (UniProt Q5VWK5 24-629, limits assumed).
T1 sequence (looked up): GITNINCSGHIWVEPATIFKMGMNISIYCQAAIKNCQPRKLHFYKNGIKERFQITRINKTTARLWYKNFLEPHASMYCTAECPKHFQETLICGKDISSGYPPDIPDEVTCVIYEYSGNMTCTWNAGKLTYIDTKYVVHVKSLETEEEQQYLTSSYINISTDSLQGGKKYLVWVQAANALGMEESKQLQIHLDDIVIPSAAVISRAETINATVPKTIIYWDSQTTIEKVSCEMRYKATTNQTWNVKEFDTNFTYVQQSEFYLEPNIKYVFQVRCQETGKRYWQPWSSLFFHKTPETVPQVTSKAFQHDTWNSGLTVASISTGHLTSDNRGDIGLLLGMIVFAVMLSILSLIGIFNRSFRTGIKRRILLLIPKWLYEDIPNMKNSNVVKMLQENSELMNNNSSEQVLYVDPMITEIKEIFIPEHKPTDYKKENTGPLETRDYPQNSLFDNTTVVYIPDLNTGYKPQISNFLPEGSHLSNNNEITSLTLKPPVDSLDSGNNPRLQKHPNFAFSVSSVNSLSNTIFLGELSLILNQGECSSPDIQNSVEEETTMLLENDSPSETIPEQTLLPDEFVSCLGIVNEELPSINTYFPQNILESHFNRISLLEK
The assay is described as follows: cell-based or functional assay.

The target in assay [2] is T1, interleukin-23 receptor (IL-23R). In words: cell-based or functional assay. The source holds these as a separate data set.

*1 amine or outer side, *2 acyl side, *3 side chain or, on linkers, in order; H or OH if unused. Bridges are numbered along the chain shown (N, C = ends). Primed or numbered codes have the meaning given here. Where no end group is shown, it is not given here. Side-chain parts run from the residue outwards. [ ]: non-standard residue; d: D form. The star is where a group is joined. code d = side-chain group of K(d): lysine given as (2R)-2-(4-((5-amino-5-carboxypentyl)amino)-4-oxobutanamido)-3-carboxy-N,N,N-trimethylpropan-1-aminium, C[N+](C)(C)C[C@@H](CC(=O)O)NC(=O)CCC(=O)*; TMAPF = 5-(4-(2-amino-2-carboxyethyl)phenoxy)-N,N,N-trimethylpentan-1-aminium, C[N+](C)(C)CCCCCOc1ccc(C[C@H](N[*:1])C(=O)[*:2])cc1; code d″ = lysine side-chain amide of a carnitine-succinyl group ((2R)-3-carboxy-N,N,N-trimethylpropan-1-aminium amide; Biotin = O=C1N[C@H]2[C@H](CS[C@H]2CCCCC(=O)*)N1; PEG2′ = PEG2 spacer unit (not further defined); Trp(7-Me) = Cc1cccc2c(C[C@H](N)C(=O)O)c[nH]c12; γGlu = O=C(O)[C@H](CCC(=O)[*:2])N[*:1]; 2Nal = N[C@@H](Cc1ccc2ccccc2c1)C(=O)O; AEF = NCCOc1ccc(C[C@H](N)C(=O)O)cc1; 3Pal = N[C@@H](Cc1cccnc1)C(=O)O; NMeK = CN[C@@H](CCCCN)C(=O)O; NMecPEG3a = not defined here; Pen = CC(C)(S)[C@H](N)C(=O)O; PEG2″ = PEG2 spacer unit; PEG4′ = not defined here; dAEF′ = not defined here; Thp = NC1(C(=O)O)CCOCC1; Sar = CNCC(=O)O

Take XNTXXXXXXENXX (HOC18gEPEG2PEG2CO-Pen(3)-N-T-7MeW-K(Ac)-Pen(3)-AEF-2Nal-THP-E-N-3Pya-Sar-CONH2) [SEQ ID NO: 61]: the “IC50, IL23R reporter assay” value in assay [1] was below 50 nM. Besides, in assay [2], the “PBMC pSTAT3 IC50” value was below 0.5 nM.

B1: SEQ ID NO: 22 (peptide)
peptide: Ac-[dR][Pen]NT[Trp(7-Me)]K(Ac)[Pen][dAEF′][2Nal][Thp]K([PEG2′-PEG2′-γGlu-C18OH])N[3Pal][Sar]-NH2
modifications: disulfide 2-7 (inferred); reading uncertain; also: printed as MeCO-r-Pen(3)-N-T-7MeW-K(Ac)-Pen(3)-AEF(d)-2Nal-THP-K(PEG2PEG2gEC18OH)-N-3Pya-Sar-CONH2
Consider B1, for which, in assay [1], the “IC50, IL23R reporter assay” value was below 50 nM. Also, the “PBMC pSTAT3 IC50” value in assay [2] was below 0.5 nM.

As to Ac-[dR][Pen]NT[Trp(7-Me)]K(Ac)[Pen][AEF][2Nal][Thp]K([PEG4′-Biotin])N[3Pal][Sar]K([PEG2″-PEG2″-γGlu-C18OH])-NH2 (disulfide 2-7) [SEQ ID NO: 56], the “IC50, IL23R reporter assay” value in assay [1] is below 50 nM. The “PBMC pSTAT3 IC50” value in assay [2] is below 0.5 nM.

Consider {Biotin-PEG4′}-[dR][Pen]NT[Trp(7-Me)]K(Ac)[Pen][AEF][2Nal][Thp]EN[3Pal][Sar]K([PEG2″-PEG2″-γGlu-C18OH])-NH2 (disulfide 2-7) [SEQ ID NO: 57], for which, in assay [1], the “IC50, IL23R reporter assay” value was below 50 nM. The “PBMC pSTAT3 IC50” value in assay [2] is below 0.5 nM.

Regarding {HOC18-γGlu-PEG2″-PEG2″}-[dR][Pen]NT[Trp(7-Me)]K(Ac)[Pen][AEF][2Nal][Thp]EN[3Pal][Sar]-NH2 (disulfide 2-7) [SEQ ID NO: 60], the “IC50, IL23R reporter assay” value in assay [1] was below 50 nM. In addition, the “PBMC pSTAT3 IC50” value in assay [2] is below 0.5 nM.

B2: SEQ ID NO: 37 (peptide)
peptide: Ac-[dR][Pen]XT[Trp(7-Me)]K(Ac)[Pen][AEF][2Nal][Thp]K([PEG2′-PEG2′-γGlu-C18OH])N[3Pal][Sar]-NH2
modifications: disulfide 2-7 (inferred); not fully specified (residue 3); printed as MeCO-r-Pen(3)-K(d)-T-7MeW-K(Ac)-Pen(3)-AEF-2Nal-THP-K(PEG2PEG2gEC18OH)-N-3Pya-Sar-CONH2
For the molecule B2, the “IC50, IL23R reporter assay” value in assay [1] was below 50 nM. Besides, the “PBMC pSTAT3 IC50” value in assay [2] was below 0.5 nM.

In the case of Ac-K([PEG2″-PEG2″-γGlu-C18OH])[Pen]NT[Trp(7-Me)]K(Ac)[Pen][TMAPF][2Nal][Thp]K(Ac)N[3Pal][Sar]-NH2 (disulfide 2-7 (inferred)) [SEQ ID NO: 62], the “IC50, IL23R reporter assay” value in assay [1] was below 50 nM. The “PBMC pSTAT3 IC50” value in assay [2] is below 0.5 nM.

B3: SEQ ID NO: 26 (peptide)
peptide: Ac-K[Pen]NT[Trp(7-Me)]K(Ac)[Pen][AEF][2Nal][Thp]EN[3Pal][Sar]-NH2
modifications: disulfide 2-7 (inferred); not fully specified (residue 1); printed as MeCO-k(PEG12gEC20OH)-Pen(3)-N-T-7MeW-K(Ac)-Pen(3)-AEF-2Nal-THP-E-N-3Pya-Sar-CONH2
For B3, the “IC50, IL23R reporter assay” value in assay [1] is below 50 nM. For the same molecule, the “PBMC pSTAT3 IC50” value in assay [2] is below 0.5 nM.

Consider Ac-[dK]([PEG2′-PEG2′-γGlu-C18OH])[Pen]NT[Trp(7-Me)]K(Ac)[Pen][AEF][2Nal][Thp]EN[3Pal][NMeK](code d)-NH2 (disulfide 2-7 (inferred)) [SEQ ID NO: 42], for which, in assay [1], the “IC50, IL23R reporter assay” value is below 50 nM. The “PBMC pSTAT3 IC50” value in assay [2] was below 0.5 nM.

B4: SEQ ID NO: 47 (peptide)
peptide: [dR][Pen]K(code d)T[Trp(7-Me)]K(Ac)[Pen][AEF][2Nal][Thp]EN[3Pal][Sar]-NH2
modifications: disulfide 2-7 (inferred); not fully specified (N-terminus); printed as HOC18gEPEG2PEG2CO-r-Pen(3)-K(d)-T-7MeW-K(Ac)-Pen(3)-AEF-2Nal-THP-E-N-3Pya-Sar-CONH2
Turning to B4, the “IC50, IL23R reporter assay” value in assay [1] was below 50 nM. Further, in assay [2], the “PBMC pSTAT3 IC50” value is below 0.5 nM.

B5: SEQ ID NO: 70 (peptide)
peptide: Ac-[dR][Pen]NT[Trp(7-Me)]K(NMecPEG3a)[Pen][AEF][2Nal][Thp]EN[3Pal][Sar]K([PEG2″-PEG2″-C18OH])-NH2
modifications: disulfide 2-7 (inferred); reading uncertain; also: printed as MeCO-r-Pen(3)-N-T-7MeW-K(NMecPEG3a)-Pen(3)-AEF-2Nal-THP-E-N-3Pya-Sar-K(PEG2PEG2C18OH)-CONH2
B5: the “IC50, IL23R reporter assay” value in assay [1] is below 50 nM. In assay [2], the “PBMC pSTAT3 IC50” value was below 0.5 nM.

B6: SEQ ID NO: 33 (peptide)
peptide: Ac-[dK]([PEG2′-PEG2′-γGlu-C18OH])[Pen]NT[Trp(7-Me)]K(Ac)[Pen][AEF][2Nal][Thp]XN[3Pal][Sar]-NH2
modifications: disulfide 2-7 (inferred); not fully specified (residue 11); printed as MeCO-k(PEG2PEG2gEC18OH)-Pen(3)-N-T-7MeW-K(Ac)-Pen(3)-AEF-2Nal-THP-K(d)-N-3Pya-Sar-CONH2
For B6, the “IC50, IL23R reporter assay” value in assay [1] is below 50 nM. Moreover, the “PBMC pSTAT3 IC50” value in assay [2] was below 0.5 nM.

B7: SEQ ID NO: 46 (peptide)
peptide: [dR][Pen]NT[Trp(7-Me)]K(code d)[Pen][AEF][2Nal][Thp]EN[3Pal][Sar]-NH2
modifications: disulfide 2-7 (inferred); not fully specified (N-terminus); printed as HOC18gEPEG2PEG2CO-r-Pen(3)-N-T-7MeW-K(d)-Pen(3)-AEF-2Nal-THP-E-N-3Pya-Sar-CONH2
On to B7, for which the “IC50, IL23R reporter assay” value in assay [1] was below 50 nM. In assay [2], the “PBMC pSTAT3 IC50” value is below 0.5 nM.

B8: SEQ ID NO: 30 (peptide)
peptide: Ac-[dR][Pen]XT[Trp(7-Me)]K(Ac)[Pen][AEF][2Nal][Thp]EN[3Pal][NMeK]([PEG2′-PEG2′-γGlu-C18OH])-NH2
modifications: disulfide 2-7 (inferred); not fully specified (residue 3); printed as MeCO-r-Pen(3)-K(d)-T-7MeW-K(Ac)-Pen(3)-AEF-2Nal-THP-E-N-3Pya-NMeK(PEG2PEG2gEC18OH)-CONH2
Consider B8, for which the “IC50, IL23R reporter assay” value in assay [1] was below 50 nM. The “PBMC pSTAT3 IC50” value in assay [2] was below 0.5 nM.

B9: SEQ ID NO: 35 (peptide)
peptide: Ac-[dK]([PEG2′-PEG2′-γGlu-C18OH])[Pen]XT[Trp(7-Me)]K(Ac)[Pen][AEF][2Nal][Thp]EN[3Pal][Sar]-NH2
modifications: disulfide 2-7 (inferred); not fully specified (residue 3); printed as MeCO-k(PEG2PEG2gEC18OH)-Pen(3)-K(d)-T-7MeW-K(Ac)-Pen(3)-AEF-2Nal-THP-E-N-3Pya-Sar-CONH2
For the molecule B9, in assay [1], the “IC50, IL23R reporter assay” value is below 50 nM. The “PBMC pSTAT3 IC50” value in assay [2] was below 0.5 nM.

Regarding Ac-K([PEG2′-PEG2′-γGlu-C18OH])[Pen]NT[Trp(7-Me)]K(Ac)[Pen][AEF][2Nal][Thp]K(Ac)N[3Pal][Sar]-NH2 (disulfide 2-7 (inferred)) [SEQ ID NO: 39], the “IC50, IL23R reporter assay” value in assay [1] was below 50 nM. In addition, in assay [2], the “PBMC pSTAT3 IC50” value was below 0.5 nM.

B10: SEQ ID NO: 27 (peptide)
peptide: XNTXXXXXXENXXK
modifications: MeCO-Pen(3)-N-T-7MeW-K(Ac)-Pen(3)-AEF-2Nal-THP-E-N-3Pya-Sar-K(PEG2PEG2gEC18OH)-CONH2
Consider B10, for which, in assay [1], the “IC50, IL23R reporter assay” value was below 50 nM. In addition, the “PBMC pSTAT3 IC50” value in assay [2] was below 0.5 nM.

Ac-[dR][Pen]NT[Trp(7-Me)]Q[Pen][AEF][2Nal][Thp]EN[3Pal][Sar]K([PEG2′-PEG2′-γGlu-C18OH])-NH2 (disulfide 2-7 (inferred)) [SEQ ID NO: 38]: the “IC50, IL23R reporter assay” value in assay [1] is below 50 nM. In assay [2], the “PBMC pSTAT3 IC50” value is below 0.5 nM.

B11: SEQ ID NO: 34 (peptide)
peptide: Ac-[dK]([PEG2′-PEG2′-γGlu-C18OH])[Pen]NT[Trp(7-Me)]X[Pen][AEF][2Nal][Thp]EN[3Pal][Sar]-NH2
modifications: disulfide 2-7 (inferred); not fully specified (residue 6); printed as MeCO-k(PEG2PEG2gEC18OH)-Pen(3)-N-T-7MeW-K(d)-Pen(3)-AEF-2Nal-THP-E-N-3Pya-Sar-CONH2
Regarding B11, the “IC50, IL23R reporter assay” value in assay [1] was below 50 nM. The “PBMC pSTAT3 IC50” value in assay [2] is below 0.5 nM.

As for Ac-[dR][Pen]NT[Trp(7-Me)]K(Ac)[Pen][AEF][2Nal][Thp]K(code d″)N[3Pal][Sar]K([PEG2″-PEG2″-γGlu-C18OH])-NH2 (disulfide 2-7 (inferred)) [SEQ ID NO: 51], the “IC50, IL23R reporter assay” value in assay [1] is at least 500 nM. The “PBMC pSTAT3 IC50” value in assay [2] is below 0.5 nM.

B12: SEQ ID NO: 43 (peptide)
peptide: [dR][Pen]NT[Trp(7-Me)]K(Ac)[Pen][AEF][2Nal][Thp]EN[3Pal][NMeK](code d)-NH2
modifications: disulfide 2-7 (inferred); not fully specified (N-terminus); printed as HOC18gEPEG2PEG2CO-r-Pen(3)-N-T-7MeW-K(Ac)-Pen(3)-AEF-2Nal-THP-E-N-3Pya-NMeK(d)-CONH2
In the case of B12, the “IC50, IL23R reporter assay” value in assay [1] is below 50 nM. Also, the “PBMC pSTAT3 IC50” value in assay [2] was below 0.5 nM.
